{"source": "patent US20210395716", "target": "β-amyloid peptide (1-42) (UniProt P05067)", "sequence (P05067 whole entry, looked up, tested part not stated)": "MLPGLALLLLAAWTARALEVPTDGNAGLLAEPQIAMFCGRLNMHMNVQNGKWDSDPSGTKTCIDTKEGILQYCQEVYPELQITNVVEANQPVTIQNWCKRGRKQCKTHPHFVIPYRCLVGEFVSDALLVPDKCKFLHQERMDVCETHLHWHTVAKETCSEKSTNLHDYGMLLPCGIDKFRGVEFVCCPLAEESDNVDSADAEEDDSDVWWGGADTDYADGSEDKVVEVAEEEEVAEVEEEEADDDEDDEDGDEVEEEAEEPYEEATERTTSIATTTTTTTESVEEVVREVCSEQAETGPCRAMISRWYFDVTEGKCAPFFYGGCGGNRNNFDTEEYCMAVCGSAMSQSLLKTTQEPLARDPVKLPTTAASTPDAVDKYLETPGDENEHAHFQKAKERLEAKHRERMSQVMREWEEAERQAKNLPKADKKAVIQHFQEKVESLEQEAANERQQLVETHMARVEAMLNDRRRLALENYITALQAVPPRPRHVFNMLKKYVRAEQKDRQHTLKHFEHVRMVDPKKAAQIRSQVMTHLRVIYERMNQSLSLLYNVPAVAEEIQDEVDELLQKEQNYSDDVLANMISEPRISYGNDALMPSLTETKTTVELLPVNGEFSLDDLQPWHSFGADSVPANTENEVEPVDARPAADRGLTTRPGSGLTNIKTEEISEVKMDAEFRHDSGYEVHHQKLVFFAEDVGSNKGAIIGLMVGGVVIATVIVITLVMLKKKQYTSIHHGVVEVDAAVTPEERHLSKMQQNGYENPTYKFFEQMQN", "data": [{"substance": "yeast NEP (yNEP)", "values": [{"measurement": "Abeta HPLC, per hr. (sample yNEP)", "result": 0.46, "unit": "per hr."}, {"measurement": "Abeta HPLC, rate (sample yNEP) (million sq unt/min)", "result": 0.0137}, {"measurement": "Abeta HPLC, units/µL (sample yNEP)", "result": 0.0274, "unit": "units/µL"}, {"measurement": "Abeta HPLC, units/µg (sample yNEP)", "result": 0.008, "unit": "units/µg"}]}]}
